The text below walks through data of patent US20180291083A1 (IMMATICS BIOTECHNOLOGIES, published 2018).

Where only a bound is given, the exact number is not on record here.

The target of one experiment is T1, HLA-B*44:02 (human).
T1 construct: Peptide-receptive MHC class I monomer made by UV cleavage of a UV-sensitive ligand
Description: UV ligand exchange ELISA; exchange yield grade. From the text: (§1) Candidate peptides for T cell based therapies according to the present invention were further tested for their MHC binding capacity (affinity). The individual peptide-MHC complexes were produced by UV-ligand exchange, where a UV-sensitive peptide is cleaved upon UV-irradiation, and exchanged with the peptide of interest as analyzed. Only peptide candidates that can effectively bind and stabilize the peptide-receptive MHC molecules prevent dissociation of the MHC complexes. To determine the yield of the exchange reaction, an ELISA was performed based on the detection of the light chain (β2m) of stabilized MHC complexes. The assay was performed as generally described in Rodenko et al. (Rodenko et al., 2006).
(§2) 96 well MAXISorp plates (NUNC) were coated over night with 2 ug/ml streptavidin in PBS at room temperature, washed 4× and blocked for 1 h at 37° C. in 2% BSA containing blocking buffer. Refolded HLA-A*02:01/MLA-001 monomers served as standards, covering the range of 15-500 ng/ml. Peptide-MHC monomers of the UV-exchange reaction were diluted 100-fold in blocking buffer. Samples were incubated for 1 h at 37° C., washed four times, incubated with 2 ug/ml HRP conjugated anti-β2m for 1 h at 37° C., washed again and detected with TMB solution that is stopped with […]. Absorption was measured at 450 nm. Candidate peptides that show a high exchange yield (preferably higher than 50%, most preferred higher than 75%) are generally preferred for a generation and production of antibodies or fragments thereof, and/or T cell receptors or fragments thereof, as they show sufficient avidity to the MHC molecules and prevent dissociation of the MHC complexes.
For orientation: In an ELISA, binding on a coated surface is turned into a signal by an enzyme label.
For the molecule KEFELRSSW, the peptide exchange yield was in the range of 50 to 75%.

For EEEGNLLRSW, the peptide exchange yield was 50 to 75%.

In the case of KEFFFVKVF, the peptide exchange yield lay in the range of 50 to 75%.

With REAGFQVKAY, the peptide exchange yield was 50 to 75%.

Molecule AESEDLAVHL registered a peptide exchange yield of 20 to 50%.

Take QENQAETHAW: the peptide exchange yield lay in the range of 50 to 75%.

For the molecule KELEDLNKW, the peptide exchange yield fell in the range of 50 to 75%.

Regarding KEKFPINGW, the peptide exchange yield is 50 to 75%.

Take NEDKGTKAW: the peptide exchange yield is 20 to 50%.

Regarding SDAQRPSSF, the peptide exchange yield lay in the range of 10 to 20%.

The molecule SEGDNVESW yielded a peptide exchange yield of 50 to 75%.

Turning to QEVDASIFKAW, the peptide exchange yield fell in the range of 50 to 75%.

Molecule RMPPFTQAF returned a peptide exchange yield of 20 to 50%.

On to NEQKIVRF, for which the peptide exchange yield fell in the range of 10 to 20%.

Molecule EEGNLLRSW showed a peptide exchange yield of 50 to 75%.

For AESEDLAVHLY, the peptide exchange yield lay within 20 to 50%.

NEIEHIPVW showed a peptide exchange yield of 50 to 75%.

In turn, EELFRDGVNW returned a peptide exchange yield of 50 to 75%.

Molecule VDASIFKAW displayed a peptide exchange yield of 20 to 50%.

With SEDHSGSYW, the peptide exchange yield was 50 to 75%.

For the molecule GESQDSTTAL, the peptide exchange yield lay within 20 to 50%.

AEIEIVKEEF came in with a peptide exchange yield of 20 to 50%.

As to GEAVTDHPDRLW, the peptide exchange yield fell in the range of 50 to 75%.

Consider AEIGEGAYGKVF, for which the peptide exchange yield was in the range of 50 to 75%.

In turn, TENPLTKLL showed a peptide exchange yield of more than 75%.

On to EENTLVQNY, for which the peptide exchange yield is 20 to 50%.

A further experiment has as its target T2, HLA-B*07:02 (human).
T2 construct: Peptide-receptive MHC class I monomer made by UV cleavage of a UV-sensitive ligand
Description: UV ligand exchange ELISA; exchange yield grade.
From the text: as §1, §2
Regarding IPVSHPVL, the peptide exchange yield was in the range of 20 to 50%.

Molecule IPASHPVL had a peptide exchange yield of 20 to 50%.

SPRITFPSL displayed a peptide exchange yield of more than 75%.

The molecule LPLSMEAKI yielded a peptide exchange yield of 20 to 50%.

As for RPRGLALVL, the peptide exchange yield was 50 to 75%.

Molecule APFGFLGMQSL registered a peptide exchange yield of 50 to 75%.

For KPLFKVSTF, the peptide exchange yield fell in the range of 20 to 50%.

Turning to MPDPHLYHQM, the peptide exchange yield lay within 20 to 50%.

YLNRHLHTW: the peptide exchange yield was in the range of 20 to 50%.

In the case of NPLTKLLAI, the peptide exchange yield was 50 to 75%.

Molecule IPANTEKASF displayed a peptide exchange yield of 20 to 50%.

For the molecule YPYQERVFL, the peptide exchange yield is 20 to 50%.

Turning to FPAPILRAV, the peptide exchange yield was 50 to 75%.

Regarding KPKAAKPKAA, the peptide exchange yield is 20 to 50%.

Regarding KPKAAKPKTA, the peptide exchange yield lay in the range of 20 to 50%.

Regarding KAFKWFSAL, the peptide exchange yield was 20 to 50%.

Take SPRAINNLVL: the peptide exchange yield is more than 75%.

Molecule YPIALTRAEM showed a peptide exchange yield of 50 to 75%.

The molecule KAKKPAGAA gave a peptide exchange yield of 20 to 50%.

IPVSRPIL came in with a peptide exchange yield of 50 to 75%.

With LPFGKIPIL, the peptide exchange yield lay in the range of 20 to 50%.

Regarding SPKLQIAAM, the peptide exchange yield was in the range of 50 to 75%.

Molecule SPVPSHWMVA returned a peptide exchange yield of 50 to 75%.

KPKKAPKSPA returned a peptide exchange yield of 50 to 75%.

As to KPKAAKPKA, the peptide exchange yield lay in the range of 20 to 50%.

The molecule RPNGNSLFTSA came in with a peptide exchange yield of 50 to 75%.

As for FPETVNNLL, the peptide exchange yield was 20 to 50%.

SESPWLHAPSL registered a peptide exchange yield of 50 to 75%.

As for LPARFYQAL, the peptide exchange yield is more than 75%.

For the molecule NPRYPNYMF, the peptide exchange yield fell in the range of 50 to 75%.

APINKAGSFL returned a peptide exchange yield of more than 75%.

Take KPKAAKPKKAAA: the peptide exchange yield was in the range of 20 to 50%.

Molecule RPMTPTQIGPSL gave a peptide exchange yield of 50 to 75%.

Turning to KARKSAGAA, the peptide exchange yield fell in the range of 50 to 75%.
